In patent US20220033460A1, “IDENTIFICATION AND USE OF T CELL EPITOPES IN DESIGNING DIAGNOSTIC AND THERAPEUTIC APPROACHES FOR COVID-19” (priority 2020, published 2022):
Like-named read-outs stand apart in the source and are kept apart here.

Key:
DRB1*07:01 [1] = details: modification not given
DRB01*04:04 [2] = details: modification not given
DRB01*11:01 [3] = details: modification not given
DRB01*07:01 [4] = details: modification not given
DRB01*15:01 [5] = details: modification not given
DRB1*07:01 [6] = details: modification not given; remark: listed apart in the source
DRB1*15:01 [7] = details: modification not given
DRB1*07:01 [8] = details: modification not given; remark: listed apart in the source
DRB1*15:01 [9] = details: modification not given; remark: listed apart in the source
[10] = molecular target: SARS-CoV-2 peptide on HLA-A*24:02 (human); assay: barcoded tetramer library on ex vivo CD8+ T cells, single-cell sequencing; T cell clone or line; details: chains Valpha:Vbeta
DRB1*07:01 [11] = details: modification not given; remark: listed apart in the source
DRB1*15:01 [12] = details: modification not given; remark: listed apart in the source
DRB1*07:01 [13] = details: modification not given; remark: listed apart in the source
DRB1*15:01 [14] = details: modification not given; remark: listed apart in the source
DRB1*07:01 [15] = details: modification not given; remark: listed apart in the source
DRB1*07:01 [16] = details: modification not given; remark: listed apart in the source
DRB1*15:01 [17] = details: modification not given; remark: listed apart in the source
DRB1*07:01 [18] = details: modification not given; remark: listed apart in the source
DRB1*15:01 [19] = details: modification not given; remark: listed apart in the source
DRB1*07:01 [20] = details: modification not given; remark: listed apart in the source
DRB1*15:01 [21] = details: modification not given; remark: listed apart in the source
DRB1*15:01 [22] = details: modification not given; remark: listed apart in the source
DRB1*07:01 [23] = details: modification not given; remark: listed apart in the source
DRB01*15:01 [24] = details: chains peptide; modification not given
DRB01*11:01 [25] = details: chains peptide; modification not given
DRB01*04:04 [26] = details: chains peptide; modification not given
DRB01*07:01 [27] = details: chains peptide; modification not given
DRB1*07:01 [28] = details: modification not given; remark: listed apart in the source
DRB1*15:01 [29] = details: modification not given; remark: listed apart in the source
DRB1*15:01 [30] = details: modification not given; remark: listed apart in the source
DRB1*07:01 [31] = details: modification not given; remark: listed apart in the source
DRB1*15:01 [32] = details: modification not given; remark: listed apart in the source
DRB1*07:01 [33] = details: modification not given; remark: listed apart in the source
DRB1*15:01 [34] = details: modification not given; remark: listed apart in the source
DRB1*07:01 [35] = details: modification not given; remark: listed apart in the source
DRB1*07:01 [36] = details: modification not given; remark: listed apart in the source
DRB1*15:01 [37] = details: modification not given; remark: listed apart in the source

PLVSSQCVNLTTRTQ [… (position 9)]
IC50 (DRB1*07:01 [1]): 838 nM

PKYVKQNTLKLAT
IC50 (DRB01*04:04 [2]): 5.31 µM
IC50 (DRB01*11:01 [3]): 257 nM
IC50 (DRB01*07:01 [4]): 2320 nM

TLLALHRSYLTPGDS
IC50 (DRB01*15:01 [5]): 257 nM

KKFLPFQQFGRDIAD [… (position 557)]
IC50 (DRB1*07:01 [6]): 1630 nM
IC50 (DRB1*15:01 [7]): 6.44 µM

PAYTNSFTRGVYYPD [… (position 26)]
IC50 (DRB1*07:01 [8]): 153 nM

QKFNGLTVLPPLLTD [… (position 853)]
IC50 (DRB1*15:01 [9]): 1710 nM

B1: TCR_101 (protein)
chain 1: EDQVTQSPEALRLQEGESSSLNCSYTVSGLRGLFWYRQDPGKGPEFLFTLYSAGEEKEKERLKATLTKKESFLHITAPKPEDSATYLCAVHLNDYKLSFGAGTTVTVRA
chain 2: NAGVMQNPRHLVRRRGQEARLRCSPVKGHSHVYWYRQLPEEGLKFMVYLQKENIIDESGMPKERFSAEFPKEGPSILRIQQVVRGDSAAYFCASSRPSGQGNNGYTFGSGTRLTVV
No. of Cells [10]: 2 cells

TLLALHRSYLTPGDS [… (position 240)]
IC50 (DRB1*07:01 [11]): 298 nM

TVEKGIYQTSNFRVQ [… (position 307)]
IC50 (DRB1*15:01 [12]): 378 nM
IC50 (DRB1*07:01 [13]): 316 nM

TFEYVSQPFLMDLEG [… (position 167)]
IC50 (DRB1*15:01 [14]): 7.67 µM
IC50 (DRB1*07:01 [15]): 442 nM

NVVIKVCEFQFCNDP [… (position 125)]
IC50 (DRB1*07:01 [16]): 6.61 µM

KLPDDFTGCVIAWNS [… (position 424)]
IC50 (DRB1*15:01 [17]): 2060 nM

NSPRRARSVASQSII [… (position 679)]
IC50 (DRB1*07:01 [18]): 206 nM
IC50 (DRB1*15:01 [19]): 25.5 µM

B2: TCR_109 (protein)
chain 1: AQKITQTQPGMFVQEKEAVTLDCTYDTSDQSYGLFWYKQPSSGEMIFLIYQGSYDEQNATEGRYSLNFQKARKSANLVISASQLGDSAMYFCAMRDSNSNSGYALNFGKGTSLLVTP
chain 2: DAEITQSPRHKITETGRQVTLACHQTWNHNNMFWYRQDLGHGLRLIHYSYGVQDTNKGEVSDGYSVSRSNTEDLPLTLESAASSQTSVYFCASSDGHQGLQETQYFGPGTRLLVL
No. of Cells [10]: 2 cells

NFRVQPTESIVRFPN [… (position 317)]
IC50 (DRB1*07:01 [20]): 1620 nM
IC50 (DRB1*15:01 [21]): 1020 nM

FRSSVLHSTQDLFLP [… (position 43)]
IC50 (DRB1*15:01 [22]): 5.57 µM
IC50 (DRB1*07:01 [23]): 85 nM

RGHLRIAGHHLGRCDIKDLPKEI [SEQ ID NO 307]
IC50 (DRB01*15:01 [24]): 5.09 µM
IC50 (DRB01*11:01 [25]): 561 nM
IC50 (DRB01*04:04 [26]): 1730 nM
IC50 (DRB01*07:01 [27]): 10.2 µM

ASQSIIAYTMSLGAE [… (position 688)]
IC50 (DRB1*07:01 [28]): 124 nM

TSVDCTMYICGDSTE [… (position 734)]
IC50 (DRB1*15:01 [29]): 36.7 µM

PLSETKCTLKSFTVE [… (position 295)]
IC50 (DRB1*15:01 [30]): 15.5 µM

DSLSSTASALGKLQD [… (position 936)]
IC50 (DRB1*07:01 [31]): 1020 nM
IC50 (DRB1*15:01 [32]): 10.9 µM

B3: TCR_76 (protein)
chain 1: QQQVKQSPQSLIVQKGGISIINCAYENTAFDYFPWYQQFPGKGPALLIAIRPDVSEKKEGRFTISFNKSAKQFSLHIMDSQPGDSATYFCAASNRGGSEKLVFGKGTKLTVNP
chain 2: NAGVTQTPKFQVLKTGQSMTLQCAQDMNHEYMSWYRQDPGMGLRLIHYSVGAGITDQGEVPNGYNVSRSTTEDFPLRLLSAAPSQTSVYFCASSYHAGDRGFGYTFGSGTRLTVV
No. of Cells [10]: 2 cells

GVYFASTEKSNIIRG [… (position 89)]
IC50 (DRB1*07:01 [33]): 99 nM
IC50 (DRB1*15:01 [34]): 15.5 µM

PFAMQMAYRFNGIGV [… (position 897)]
IC50 (DRB1*07:01 [35]): 158 nM

TWRVYSTGSNVFQTR [… (position 632)]
IC50 (DRB1*07:01 [36]): 220 nM
IC50 (DRB1*15:01 [37]): 1950 nM
